Measurements from IntAct's records for PubMed 8887672.

B1: RNA polymerase I-specific transcription initiation factor RRN11 (Saccharomyces cerevisiae), Q04712 (parent)
chain: MFEVPITLTNRKFAQRRKLKYQYINYISRRFDRISKKSTTTDSLPTPENSAAENNDEEEGQNSEAGTYRRSVLQQKKRRRERHWRSVVGEIYSTTESETDSQEEETEEGGEHDTGIDKEDSDEERKFWKKYEKPEKSFEIWRTVSSQNKQPINKQKMTYHNFKKIEKIPLRKMEIPLLHCTKENKLYFQSISRGLEPLKTSTSEVRNYRTRHIVTLTDLLHLNVSRHNWSLAYKIFATLIRIPGVQIKSLWGIGVEILDNLSNSSSGLDFLQWMCQIYSSKSRFVQNINYRSIVPPFQTGSRTHTAKFAITYLWSSLINCQKSMEPSSNIIDKPFDTENDLLQELIDKISEWVLTPPFMEDAEVWFIYASCHLLKADTLSRQFVNDNKNNDLIGLDRDIKINQVIKHIHYVRTFLKICLDKGGFAVPSRLIENQLKSFESRLYGEAQDIQERDVANVYDSIDNSSVENSFGDVYETNAEFLDTQLMDLSPEDNGLDEMHYSDEDSSE
partner: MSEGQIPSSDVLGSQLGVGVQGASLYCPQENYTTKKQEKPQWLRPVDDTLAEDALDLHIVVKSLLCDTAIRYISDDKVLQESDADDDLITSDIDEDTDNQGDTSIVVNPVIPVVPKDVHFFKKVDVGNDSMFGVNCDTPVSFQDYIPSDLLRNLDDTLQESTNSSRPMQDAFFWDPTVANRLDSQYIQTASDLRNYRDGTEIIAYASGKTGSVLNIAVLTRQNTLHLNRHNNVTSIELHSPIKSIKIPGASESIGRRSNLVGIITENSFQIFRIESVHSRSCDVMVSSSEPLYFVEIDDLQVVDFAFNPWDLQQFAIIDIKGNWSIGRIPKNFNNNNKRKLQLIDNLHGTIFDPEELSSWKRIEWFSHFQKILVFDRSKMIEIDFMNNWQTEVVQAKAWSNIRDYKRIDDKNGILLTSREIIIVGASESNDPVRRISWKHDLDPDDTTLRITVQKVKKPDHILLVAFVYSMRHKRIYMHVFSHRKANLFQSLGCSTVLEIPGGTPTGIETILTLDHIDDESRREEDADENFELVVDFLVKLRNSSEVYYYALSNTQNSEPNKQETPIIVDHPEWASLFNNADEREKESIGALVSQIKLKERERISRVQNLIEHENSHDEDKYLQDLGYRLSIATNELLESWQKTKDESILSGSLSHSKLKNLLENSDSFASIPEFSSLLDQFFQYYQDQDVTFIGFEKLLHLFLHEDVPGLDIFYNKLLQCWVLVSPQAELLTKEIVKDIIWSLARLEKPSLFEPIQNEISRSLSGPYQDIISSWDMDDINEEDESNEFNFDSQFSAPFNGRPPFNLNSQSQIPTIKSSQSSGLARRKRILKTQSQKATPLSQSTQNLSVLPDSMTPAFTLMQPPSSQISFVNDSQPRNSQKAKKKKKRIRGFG
B2: RNA polymerase I-specific transcription initiation factor RRN6 (Saccharomyces cerevisiae), P32786 (parent)
chain: B1 partner
partner: B1 chain

Variants of: B1
Conditions: with rrn6_yeast RRN6, P32786

effect of a mutation on the interaction	Variant
decreasing interaction	MFEVPITLTNRKFAQRRKLKYQYINYISRRFDRISKKSTTTDSLPTPENSAAENNDEEEGQNSEAGTYRRSVLQQKKRRRERHWRSVVGEIYSTTESETDSQEEETEEGGEHDTGIDKEDSDEERKFWKKYEKPEKSFEIWRTVSSQNKQPINKQKMTYHNFKKIEKIPLRKMEIPLLHCTKENKLYFQSISRGLEPLKTSTSEVRNYRTRHIVTLTDLLHLNVSRHNWSLAYKIFATLIRIPGVQIKSLWGIGVEILDNLSNSSSGLDFLQWMCQIYSSKSRFVQNINYRSIVPPFQTGSRTHTAKFAITYLWSSLINCQKSMEPSSNIIDKPFDTENDLLQELIDKISEWVLTPPFMEDAEVWFIYASCHLLKADTLSRQFVNDNKNNDLIGLDRDIKINQVIKHIHYVRTFLKICLDKGGFAVPSRLIENQLKSFESRLYGEAQDIQERDVANVYDSIDNSSVENSFGDVYETNAEFADTQLMDASPEDNGADEMHYSDEDSSE [L481A;L488A;L495A]

Variants of: B2
Conditions: with rrn11_yeast RRN11, Q04712

effect of a mutation on the interaction	Variant
decreasing interaction	L50A;L57A;L64A
